Consider four substances from PMC4394509.

Holding throughout (experiment): FRET or BRET; acceptor-bleaching FRET at kinetochores of transfected human cells (HeLa, HEp-2, U2OS), in vivo or in situ; donor EGFP, acceptor mCherry; E_FRET of a bleached region compared with EVAR of an unbleached region
Test [1] has as its target CENP-S-mCherry (UniProt Q8N2Z9).
The target of test [2] is mCherry-CENP-S (UniProt Q8N2Z9).
Test [3] concerns the target EGFP-CENP-U (UniProt Q71F23).
The target in test [4] is mCherry-CENP-B (UniProt P07199).
Test [5] deals with mCherry-H3.1 (human) (UniProt P68431).
The target of test [6] is CENP-B-mCherry (UniProt P07199).

Sequence of UniProt Q71F23 (Q71F23 whole entry): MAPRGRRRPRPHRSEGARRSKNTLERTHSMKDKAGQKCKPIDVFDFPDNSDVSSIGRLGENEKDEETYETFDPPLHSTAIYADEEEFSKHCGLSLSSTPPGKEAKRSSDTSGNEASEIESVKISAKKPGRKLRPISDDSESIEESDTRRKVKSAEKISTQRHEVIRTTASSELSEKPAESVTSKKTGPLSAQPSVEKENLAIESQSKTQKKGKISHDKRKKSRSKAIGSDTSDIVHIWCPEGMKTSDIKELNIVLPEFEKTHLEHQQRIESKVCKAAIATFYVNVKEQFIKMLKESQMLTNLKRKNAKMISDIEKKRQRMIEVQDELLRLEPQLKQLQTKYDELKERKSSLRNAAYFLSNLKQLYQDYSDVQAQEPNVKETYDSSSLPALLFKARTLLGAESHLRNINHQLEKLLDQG

For “CENP-M-EGFP (from UniProt Q9NSP4 1-180) (natural protein)”, in test [1], the mean E FRET % was found to be 3.49% and the ΔE % worked out at 3.91%. In test [2], this substance displayed a mean E FRET % of 4% and a ΔE % of 4.78%.
In test [3], “CENP-M-mCherry (from UniProt Q9NSP4 1-180) (natural protein)” showed a mean E FRET % of 6.08% and a ΔE % of 7.86%.
For the substance “CENP-W-EGFP (from UniProt Q5EE01 1-88) (natural protein)”, in test [4], the mean E FRET % is 5.07% and the ΔE % worked out at 4.4%. In test [5], the mean E FRET % amounted to 3.7% and the ΔE % worked out at 5.8%.
Take “EGFP-CENP-W (from UniProt Q5EE01 1-88) (natural protein)”: in test [6], the mean E FRET % is 4.37% and the ΔE % was 3.6%.
